T1: IL-18 receptor (IL-18Rα/IL-18Rβ) on cells (HEK-Blue IL18R reporter cells, NK-92, KG-1) (human, UniProt Q13478 19-541; O95256 20-599)
T1 sequence (looked up) 1: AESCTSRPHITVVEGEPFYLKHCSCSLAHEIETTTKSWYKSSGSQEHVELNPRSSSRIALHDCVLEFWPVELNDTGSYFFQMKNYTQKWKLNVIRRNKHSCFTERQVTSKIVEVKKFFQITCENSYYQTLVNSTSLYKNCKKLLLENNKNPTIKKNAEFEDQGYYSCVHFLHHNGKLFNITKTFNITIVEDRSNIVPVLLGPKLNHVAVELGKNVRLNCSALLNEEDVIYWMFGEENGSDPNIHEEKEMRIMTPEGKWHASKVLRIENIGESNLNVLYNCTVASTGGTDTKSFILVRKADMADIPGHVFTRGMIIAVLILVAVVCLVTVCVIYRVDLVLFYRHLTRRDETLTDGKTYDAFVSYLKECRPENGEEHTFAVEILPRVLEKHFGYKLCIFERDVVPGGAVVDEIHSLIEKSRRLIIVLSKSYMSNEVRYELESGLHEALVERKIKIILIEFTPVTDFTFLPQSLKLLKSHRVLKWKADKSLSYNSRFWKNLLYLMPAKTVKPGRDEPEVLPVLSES
T1 sequence (looked up) 2: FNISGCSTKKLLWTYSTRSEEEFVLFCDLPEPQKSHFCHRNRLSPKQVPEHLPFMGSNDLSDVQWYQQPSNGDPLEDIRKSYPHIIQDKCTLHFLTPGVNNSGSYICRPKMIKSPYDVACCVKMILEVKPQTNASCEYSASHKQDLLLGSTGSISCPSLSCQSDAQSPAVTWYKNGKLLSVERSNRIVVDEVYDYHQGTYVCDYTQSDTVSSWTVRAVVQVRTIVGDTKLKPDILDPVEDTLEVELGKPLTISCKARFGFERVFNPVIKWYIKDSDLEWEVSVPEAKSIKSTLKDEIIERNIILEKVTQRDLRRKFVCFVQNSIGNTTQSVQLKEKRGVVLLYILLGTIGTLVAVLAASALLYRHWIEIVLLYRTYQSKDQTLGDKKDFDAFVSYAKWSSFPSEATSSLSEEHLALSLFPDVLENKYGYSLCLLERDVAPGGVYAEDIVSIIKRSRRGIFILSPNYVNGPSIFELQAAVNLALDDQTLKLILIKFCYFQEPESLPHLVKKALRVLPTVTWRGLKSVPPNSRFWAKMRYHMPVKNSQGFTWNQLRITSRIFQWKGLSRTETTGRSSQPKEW

T2: human IL-18BP-His (human, UniProt O95998 31-194, limits assumed)
T2 construct: also called His-tagged human IL-18BP; not shown: His tag
T2 sequence (looked up): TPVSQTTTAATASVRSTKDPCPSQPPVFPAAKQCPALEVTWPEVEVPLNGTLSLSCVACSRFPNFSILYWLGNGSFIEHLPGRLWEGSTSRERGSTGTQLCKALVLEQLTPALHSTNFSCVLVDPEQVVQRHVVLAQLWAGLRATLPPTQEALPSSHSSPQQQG

B1: IL-18 polypeptide C142 (ligand)
chain: MFGKLKSKLSIIRNLNDQVLFIDQGNRPLFEDMTDSDARDNAPRTIFIISMYADSQPRGMAVAISVKCEKISTLSAENKIISFKEMNPPDNIKDTKSDIIFFQRSVPGHDNKMQFESSSYEGYFLAAEKERDLFKLILKKEDELGDRSIMFTVQNED
notes: also called Y1M, E6K, V11I, C38A, K53A, T63A, C76A, C127A
B2: IL-18 polypeptide C147 (ligand)
chain: YFGKLESKLSIIRNLNDQVLFIDQGNRPLFEDMTDSDARDNAPRTIFIISMYAASQPRGMAVTISVKCEKISTLSAENKIISFKEMNPPDNIKDTKSDIIFFQRSVPGHDNKMQFESSSYEGYFLAAEKERDLFKLILKKEDELGDRSIMFTVQNED
notes: also called V11I, C38A, K53A, D54A, C76A, C127A
B3: IL-18 polypeptide of SEQ ID NO: 56 (E6K, K53A, C38S, C76S, C127S) (ligand)
chain: YFGKLKSKLSVIRNLNDQVLFIDQGNRPLFEDMTDSDSRDNAPRTIFIISMYADSQPRGMAVTISVKCEKISTLSSENKIISFKEMNPPDNIKDTKSDIIFFQRSVPGHDNKMQFESSSYEGYFLASEKERDLFKLILKKEDELGDRSIMFTVQNED
B4: IL-18 polypeptide C144 (ligand)
chain: YFGKLESKLSIIRNLNDQVLFIDQGNRPLFEDMTDSDARDNAPRTIFIISMYADSQPRGMAVAISVKCEKISTLSAENKIISFKEMNPPDNIKDTKSDIIFFQRSVPGHDNKMQFESSSYEGYFLAAEKERDLFKLILKKEDELGDRSIMFTVQNED
notes: also called V11I, C38A, K53A, T63A, C76A, C127A
B5: IL-18 polypeptide of SEQ ID NO: 55 (K53A, T63A, C38S, C68S, C76S, C127S, K70C) (ligand)
chain: YFGKLESKLSVIRNLNDQVLFIDQGNRPLFEDMTDSDSRDNAPRTIFIISMYADSQPRGMAVAISVKSECISTLSSENKIISFKEMNPPDNIKDTKSDIIFFQRSVPGHDNKMQFESSSYEGYFLASEKERDLFKLILKKEDELGDRSIMFTVQNED
B6: IL-18 polypeptide C184 (ligand)
chain: YFGKLRSKLSIIRNLNDQVLFIDQGNRPLFEDMTDSDARDNAPRTIFIISMYADSQPRGMAVAISVKCEKISTLSAENKIISFKEMNPPDNIKDTKSDIIFFQRSVPGHDNKMQFESSSYEGYFLAAEKERDLFKLILKKEDELGDRSIMFTVQNED
notes: also called E6R, V11I, C38A, K53A, T63A, C76A, C127A
B7: IL-18 polypeptide C148 (ligand)
chain: YAGKLESKLSIIRNLNDQVLFIDQGNRPLFEDMTDSDARDNAPRTIFIISMYADSQPRGMAVTISVKCEKISTLSAENKIISFKEMNPPDNIKDTKSDIIFFQRSVPGHDNKMQFESSSYEGYFLAAEKERDLFKLILKKEDELGDRSIMFTVQNED
notes: also called F2A, V11I, C38A, K53A, C76A, C127A
B8: IL-18 polypeptide C146 (SEQ ID NO: 68) (ligand)
chain: YFGKLESKLSIIRNLNDQVLFIDQGNRPLFEDMTDSDARDNAPRTIFIISGYADSQPRGMAVTISVKCEKISTLSAENKIISFKEMNPPDNIKDTKSDIIFFQRSVPGHDNKMQFESSSYEGYFLAAEKERDLFKLILKKEDELGDRSIMFTVQNED
notes: also called V11I, C38A, M51G, K53A, C76A, C127A
B9: IL-18 polypeptide C152 (ligand)
chain: YFGKLESKLSIIRNLNDQVLFIDQGNRPLFEDMTDADARDNAPRTIFIISMYADSQPRGMAVTISVKCEKISTLSAENKIISFKEMNPPDNIKDTKSDIIFFQRSVPGHDNKMQFESSSYEGYFLAAEKERDLFKLILKKEDELGDRSIMFTVQNED
notes: also called V11I, S36A, C38A, K53A, C76A, C127A
B10: IL-18 polypeptide C176 (ligand)
chain: YFGKLKSKLSIIRNLNDQVLFIDQGNRPLFEDMTDSDARDNAPRTIFIMSMYADSQPRGMAVAISVKCEKISTLSAENKIISFKEMNPPDNIKDTKSDIIFFQRSVPGHDNKMQFESSSYEGYFLAAEKERDLFKLILKKEDELGDRSIMFTVQNED
notes: also called E6K, V11I, C38A, I49M, K53A, T63A, C76A, C127A
B11: IL-18 polypeptide C149 (ligand)
chain: YFGKLESKLSIIRNLNDQVLFIDQGNRPLFADMTDSDARDNAPRTIFIISMYADSQPRGMAVTISVKCEKISTLSAENKIISFKEMNPPDNIKDTKSDIIFFQRSVPGHDNKMQFESSSYEGYFLAAEKERDLFKLILKKEDELGDRSIMFTVQNED
notes: also called V11I, E31A, C38A, K53A, C76A, C127A
B12: IL-18 polypeptide C145 (ligand)
chain: YFGKLESKLSIIRNLNDQVLFIDQGNRPLFEDMTDSDARDNAPRTIFIISMYADAQPRGMAVTISVKCEKISTLSAENKIISFKEMNPPDNIKDTKSDIIFFQRSVPGHDNKMQFESSSYEGYFLAAEKERDLFKLILKKEDELGDRSIMFTVQNED
notes: also called V11I, C38A, K53A, S55A, C76A, C127A
B13: IL-18 polypeptide C174 (ligand)
chain: YFGKLKSLLSIIRNLNDQVLFIDQGNRPLFEDMTDSDARDNAPRTIFIISMYADSQPRGMAVAISVKCEKISTLSAENKIISFKEMNPPDNIKDTKSDIIFFQRSVPGHDNKMQFESSSYEGYFLAAEKERDLFKLILKKEDELGDRSIMFTVQNED
notes: also called K8L, E6K, V11I, C38A, K53A, T63A, C76A, C127A
B14: IL-18 polypeptide C143 (ligand)
chain: YFGKLESKLSIIRNLNDQVLFIDQGNRPLFEDMTDSDARDNAPRTIFIISMYADSQPRGMAVTISVKCEKISTLSAENKIISFKEMNPPDNIKDTKSDIIFFQRSVPGHDNKMQFESSSYEGYFLAAEKERDLFKLILKKEDELGDRSIMFTVQNED
notes: also called V11I, C38A, K53A, C76A, C127A
B15: IL-18 polypeptide of SEQ ID NO: 47 (C38S, C68S, C76S, C127S) (ligand)
chain: YFGKLESKLSVIRNLNDQVLFIDQGNRPLFEDMTDSDSRDNAPRTIFIISMYKDSQPRGMAVTISVKSEKISTLSSENKIISFKEMNPPDNIKDTKSDIIFFQRSVPGHDNKMQFESSSYEGYFLASEKERDLFKLILKKEDELGDRSIMFTVQNED
B16: IL-18 polypeptide C151 (ligand)
chain: YFGKLESKLSIIRNLNDQVLFIDQGNRPLFEDMTASDARDNAPRTIFIISMYADSQPRGMAVTISVKCEKISTLSAENKIISFKEMNPPDNIKDTKSDIIFFQRSVPGHDNKMQFESSSYEGYFLAAEKERDLFKLILKKEDELGDRSIMFTVQNED
notes: also called V11I, D35A, C38A, K53A, C76A, C127A
B17: IL-18 polypeptide C150 (ligand)
chain: YFGKLESKLSIIRNLNDQVLFIDQGNRPLFEDMADSDARDNAPRTIFIISMYADSQPRGMAVTISVKCEKISTLSAENKIISFKEMNPPDNIKDTKSDIIFFQRSVPGHDNKMQFESSSYEGYFLAAEKERDLFKLILKKEDELGDRSIMFTVQNED
notes: also called V11I, T34A, C38A, K53A, C76A, C127A
B18: IL-18 polypeptide of SEQ ID NO: 48 (C38S, C68S, C76S, C127S, K70C) (ligand)
chain: YFGKLESKLSVIRNLNDQVLFIDQGNRPLFEDMTDSDSRDNAPRTIFIISMYKDSQPRGMAVTISVKSECISTLSSENKIISFKEMNPPDNIKDTKSDIIFFQRSVPGHDNKMQFESSSYEGYFLASEKERDLFKLILKKEDELGDRSIMFTVQNED

Assays:
[1] = biological target: T1, IL-18 receptor (IL-18Rα/IL-18Rβ) on …; experiment: cell-based or functional assay
human IL-18BP-His = biological target: T2, human IL-18BP-His; experiment: AlphaLISA of free IL-18BP
Experimental: The plate is incubated further for 1 hr at room temperature. Under subdued light, 12.5 µL of 2× streptavidin (SA) donor beads are pipetted into each well, and the wells are incubated with shaking for an additional 30 min at room temperature. The AlphaLisa signal is then measured on an Enspire plate reader with 680 and 615 nm as excitation and emission wavelengths, respectively. The dissociation constant (K_D) is calculated based on a variable slope, four parameter analysis using GraphPad PRISM software.

[2] = biological target: T1, IL-18 receptor (IL-18Rα/IL-18Rβ) on …; experiment: cell-based or functional assay; remark: listed apart in the source

Binder | EC50, HEK-Blue IL18R reporter cells [1] | Kd (human IL-18BP-His) | EC50, IFNγ stimulation, NK92 cells [2]
B1 | 0.02 pM | 2250 pM | –
B2 | 1 pM | 25800 pM | 79 pM
B3 | 3.73 pM | 436000 pM | –
B4 | 0.17 pM | 660 pM | 12 pM
B5 | – | 913000 pM | 17200 pM
B6 | 0.04 pM | 5460 pM | –
B7 | 7.28 pM | 57200 pM | 256 pM
B8 | 0.8 pM | 373000 pM | 37 pM
B9 | 0.25 pM | 1120 pM | 33 pM
B10 | 0.07 pM | 25800 pM | –
B11 | 6.6 pM | 640 pM | 187 pM
B12 | 3.63 pM | 9740 pM | 87 pM
B13 | 0.29 pM | 140 pM | –
B14 | 0.98 pM | 8860 pM | 138 pM
B15 | – | 30 pM | 115 pM
B16 | 13.1 pM | 2880 pM | 61 pM
B17 | 0.7 pM | 1240 pM | 15 pM
B18 | – | 210 pM | 488 pM
